Measurements published in patent publication US20040067882A1 (published 2004).

Molecular target: the molecule itself
Experiment: self-association, non-reducing western blot

B1: CG57094-02 purified protein (angiopoietin-related protein, ARP, mature region; CHO-K1 stable cell expression, plasmid 1614) (ligand)
chain: GPVQSKSPRFASWDEMNVLAHGLLQLGQGLREHAERTRSQLSALERRLSACGSACQGTEGSTDLPLAPESRVDPEVLHSLQTQLKAQNSRIQQLFHKVAQQQRHLEKQHLRIQHLQSQFGLLDHKHLDHEVAKPARRKRLPEMAQPVDPAHNVSRLHRLPRDCQELFQVGERQSGLFEIQPQGSPPFLVNCKMTSDGGWTVIQRRHDGSVDFNRPWEAYKAGFGDPHGEFWLGLEKVHSITGDRNSRLAVQLRDWDGNAELLQFSVHLGGEDTAYSLQLTAPVAGQLGATTVPPSGLSVPFSTWDQDHDLRRDKNCAKSLSGGWWFGTCSHSNLNGQYFRSIPQQRQKLKKGIFWKTWRGRYYPLQATTMLIQPMAAEAAS
notes: also called NOV25s; CG57094 variant 02; not shown: C-terminal V5 and His tags from the pEE14.4 Sec vector
binding result: binds
